Values belong to the binder of their own block, whether it stands above or below them.
What was measured:
Assay in all cases: holdup assay
Parameters in all cases: key: below the threshold = too weak to quantify, mostly under pKd 3.1 to 4
Conditions in all cases: plain residues with an end cap or a label only (N-terminal biotin on a linker: ado-ado)
[1] = target: T1, APBA2_2, Q99767
T1 sequence (Q99767 654-744, limits assumed, looked up): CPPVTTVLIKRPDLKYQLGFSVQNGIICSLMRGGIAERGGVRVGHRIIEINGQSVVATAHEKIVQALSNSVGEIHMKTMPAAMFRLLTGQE

[2] = target: T2, CARD11, Q9BXL7
T2 sequence (Q9BXL7 662-765, limits assumed, looked up): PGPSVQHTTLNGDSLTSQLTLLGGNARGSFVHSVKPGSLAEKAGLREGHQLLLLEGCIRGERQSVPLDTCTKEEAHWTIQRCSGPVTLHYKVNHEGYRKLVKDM

[3] = target: CASK, O14936
[4] = target: T3, DFNB31_2, Q9P202
T3 sequence (Q9P202 274-371, limits assumed, looked up): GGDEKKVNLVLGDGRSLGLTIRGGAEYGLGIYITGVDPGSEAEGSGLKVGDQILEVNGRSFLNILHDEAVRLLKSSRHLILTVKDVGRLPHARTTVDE

[5] = target: T4, DLG3_2, Q92796
T4 sequence (Q92796 221-321, limits assumed, looked up): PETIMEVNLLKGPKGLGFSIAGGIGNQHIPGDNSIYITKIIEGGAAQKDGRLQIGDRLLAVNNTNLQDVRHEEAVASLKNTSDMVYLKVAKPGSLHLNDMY

[6] = target: T5, DLG3_3, Q92796
T5 sequence (Q92796 374-475, limits assumed, looked up): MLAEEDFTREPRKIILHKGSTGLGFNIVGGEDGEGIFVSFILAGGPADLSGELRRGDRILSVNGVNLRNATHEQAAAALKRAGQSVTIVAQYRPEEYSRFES

[7] = target: DLG4_1, P78352
[8] = target: FRMPD2_3, Q68DX3
[9] = target: GRIP2_3, Q9C0E4
[10] = target: GRIP2_4, Q9C0E4
[11] = target: GRIP2_5, Q9C0E4
[12] = target: GRIP2_6, Q9C0E4
[13] = target: IL16_3, Q14005
[14] = target: Inadl_1, Q8NI35
[15] = target: Inadl_8, Q8NI35
[16] = target: LDB3, O75112
[17] = target: LIMK2, P53671
[18] = target: T6, LNX2_2, Q8N448
T6 sequence (Q8N448 334-432, limits assumed, looked up): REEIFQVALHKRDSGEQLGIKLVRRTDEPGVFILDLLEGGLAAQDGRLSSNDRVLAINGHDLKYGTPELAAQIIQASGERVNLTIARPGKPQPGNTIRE

[19] = target: MAGI2_4, Q86UL8
[20] = target: MAGI2_6, Q86UL8
[21] = target: MAGI3_2, Q5TCQ9
[22] = target: T7, MPDZ_12, O75970
T7 sequence (O75970 1857-1958, limits assumed, looked up): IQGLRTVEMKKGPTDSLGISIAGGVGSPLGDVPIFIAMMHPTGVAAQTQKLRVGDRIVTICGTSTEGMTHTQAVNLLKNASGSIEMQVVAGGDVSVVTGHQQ

[23] = target: T8, MPP2, Q14168
T8 sequence (Q14168 180-250, limits assumed, looked up): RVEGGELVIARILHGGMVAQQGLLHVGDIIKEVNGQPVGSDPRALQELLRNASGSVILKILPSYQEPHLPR

[24] = target: T9, PDZD7_3, Q9H5P4
T9 sequence (Q9H5P4 857-944, limits assumed, looked up): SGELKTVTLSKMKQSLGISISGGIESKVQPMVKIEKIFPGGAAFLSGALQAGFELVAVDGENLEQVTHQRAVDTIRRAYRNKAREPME

[25] = target: PTPN3, P26045
[26] = target: T10, SHANK1, Q9Y566
T10 sequence (Q9Y566 658-767, limits assumed, looked up): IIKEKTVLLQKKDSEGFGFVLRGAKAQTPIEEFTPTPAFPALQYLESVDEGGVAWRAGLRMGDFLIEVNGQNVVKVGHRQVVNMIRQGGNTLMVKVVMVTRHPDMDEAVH

[27] = target: TJP1_3, Q07157
[28] = target: T11, TJP3_3, O95049
T11 sequence (O95049 375-456, limits assumed, looked up): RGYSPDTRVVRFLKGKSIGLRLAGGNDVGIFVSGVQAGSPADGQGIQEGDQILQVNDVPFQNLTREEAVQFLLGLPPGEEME

Sequence of LIMK2, P53671 (P53671 143-248): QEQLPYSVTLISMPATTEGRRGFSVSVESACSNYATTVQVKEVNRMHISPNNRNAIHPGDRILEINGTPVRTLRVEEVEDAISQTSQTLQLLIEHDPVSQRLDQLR
Sequence of PTPN3, P26045 (P26045 505-587): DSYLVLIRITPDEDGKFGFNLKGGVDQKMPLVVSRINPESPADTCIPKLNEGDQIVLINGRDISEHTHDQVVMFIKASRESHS
Sequence of GRIP2_4, Q9C0E4 (Q9C0E4 446-548): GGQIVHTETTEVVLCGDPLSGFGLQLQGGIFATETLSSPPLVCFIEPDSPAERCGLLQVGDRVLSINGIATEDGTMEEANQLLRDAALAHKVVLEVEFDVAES
Sequence of MAGI3_2, Q5TCQ9 (Q5TCQ9 398-503): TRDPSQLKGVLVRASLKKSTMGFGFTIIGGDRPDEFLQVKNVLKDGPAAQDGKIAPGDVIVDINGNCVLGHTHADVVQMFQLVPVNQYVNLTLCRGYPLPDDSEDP
Sequence of Inadl_8, Q8NI35 (Q8NI35 1425-1530): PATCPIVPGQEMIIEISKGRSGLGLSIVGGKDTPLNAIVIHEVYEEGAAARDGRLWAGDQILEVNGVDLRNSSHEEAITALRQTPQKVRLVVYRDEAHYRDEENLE
Sequence of GRIP2_6, Q9C0E4 (Q9C0E4 648-740): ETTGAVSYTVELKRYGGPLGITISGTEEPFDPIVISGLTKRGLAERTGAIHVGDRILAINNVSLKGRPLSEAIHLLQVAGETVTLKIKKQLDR
Sequence of TJP1_3, Q07157 (Q07157 416-512): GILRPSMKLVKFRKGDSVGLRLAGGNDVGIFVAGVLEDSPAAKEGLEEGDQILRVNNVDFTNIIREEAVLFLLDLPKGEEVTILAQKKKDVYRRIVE
Sequence of MAGI2_4, Q86UL8 (Q86UL8 772-865): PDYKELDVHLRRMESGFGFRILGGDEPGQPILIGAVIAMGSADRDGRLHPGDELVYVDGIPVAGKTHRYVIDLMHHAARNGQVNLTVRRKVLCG
Sequence of FRMPD2_3, Q68DX3 (Q68DX3 1073-1166): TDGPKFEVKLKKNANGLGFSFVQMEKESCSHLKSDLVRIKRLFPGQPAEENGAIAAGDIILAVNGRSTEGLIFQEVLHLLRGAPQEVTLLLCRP
Sequence of LDB3, O75112 (O75112 1-94): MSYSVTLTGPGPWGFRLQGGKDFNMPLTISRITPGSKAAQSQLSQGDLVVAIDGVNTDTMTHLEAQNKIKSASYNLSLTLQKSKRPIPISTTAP
Sequence of MAGI2_6, Q86UL8 (Q86UL8 1141-1229): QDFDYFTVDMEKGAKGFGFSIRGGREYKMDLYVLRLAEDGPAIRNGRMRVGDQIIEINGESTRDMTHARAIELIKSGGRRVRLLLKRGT
Sequence of DLG4_1, P78352 (P78352 62-152): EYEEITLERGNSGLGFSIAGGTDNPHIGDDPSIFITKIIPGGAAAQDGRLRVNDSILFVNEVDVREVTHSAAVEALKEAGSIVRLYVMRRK
Sequence of GRIP2_5, Q9C0E4 (Q9C0E4 544-642): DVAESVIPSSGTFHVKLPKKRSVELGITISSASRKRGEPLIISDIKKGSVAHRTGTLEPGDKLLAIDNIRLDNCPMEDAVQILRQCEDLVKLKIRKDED
Sequence of Inadl_1, Q8NI35 (Q8NI35 113-229): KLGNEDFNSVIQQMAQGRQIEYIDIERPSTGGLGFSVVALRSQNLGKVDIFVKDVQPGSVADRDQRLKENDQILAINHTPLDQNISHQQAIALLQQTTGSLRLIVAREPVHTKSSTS
Sequence of GRIP2_3, Q9C0E4 (Q9C0E4 238-339): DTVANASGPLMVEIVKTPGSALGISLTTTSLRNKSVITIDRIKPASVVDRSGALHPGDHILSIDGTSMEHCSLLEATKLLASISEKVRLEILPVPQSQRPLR
Sequence of IL16_3, Q14005 (Q14005 1107-1207): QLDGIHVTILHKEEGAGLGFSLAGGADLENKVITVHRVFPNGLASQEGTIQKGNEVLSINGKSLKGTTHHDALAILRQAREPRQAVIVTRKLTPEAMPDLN
Sequence of CASK, O14936 (O14936 487-570): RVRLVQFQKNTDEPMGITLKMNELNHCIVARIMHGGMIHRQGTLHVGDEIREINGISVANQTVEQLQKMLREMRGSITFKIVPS

Binder: SNAGNTATKA [NOSTRIN, Q8IVI9]
pKd [1]: below the threshold
pKd [2]: below the threshold
pKd [3]: below the threshold
pKd [4]: below the threshold
pKd [5]: 4.25
pKd [6]: below the threshold
pKd [7]: below the threshold
pKd [8]: below the threshold
pKd [9]: below the threshold
pKd [10]: below the threshold
pKd [11]: below the threshold
pKd [12]: below the threshold
pKd [13]: below the threshold
pKd [14]: below the threshold
pKd [15]: below the threshold
pKd [16]: below the threshold
pKd [17]: below the threshold
pKd [18]: 3.56
pKd [19]: below the threshold
pKd [20]: below the threshold
pKd [21]: below the threshold
pKd [22]: below the threshold
pKd [23]: below the threshold
pKd [24]: below the threshold
pKd [25]: 3.87
pKd [26]: below the threshold
pKd [27]: below the threshold
pKd [28]: below the threshold

Binder: TKGPRGPTRV [SAPCD1, Q5SSQ6]
pKd [1]: below the threshold
pKd [2]: below the threshold
pKd [3]: below the threshold
pKd [4]: below the threshold
pKd [5]: 4.13
pKd [6]: 4.44
pKd [7]: 4.48
pKd [8]: below the threshold
pKd [9]: below the threshold
pKd [10]: below the threshold
pKd [11]: below the threshold
pKd [12]: below the threshold
pKd [13]: below the threshold
pKd [14]: below the threshold
pKd [15]: 5.64
pKd [16]: below the threshold
pKd [17]: below the threshold
pKd [18]: 3.87
pKd [19]: below the threshold
pKd [20]: below the threshold
pKd [21]: 5.41
pKd [22]: below the threshold
pKd [23]: below the threshold
pKd [24]: 4.74
pKd [25]: below the threshold
pKd [26]: 4.26
pKd [27]: below the threshold
pKd [28]: below the threshold

Results, then the binder that gave them:

pKd [1]: below the threshold
pKd [2]: below the threshold
pKd [3]: below the threshold
pKd [4]: below the threshold
pKd [5]: 4.14
pKd [6]: below the threshold
pKd [7]: below the threshold
pKd [8]: below the threshold
pKd [9]: below the threshold
pKd [10]: below the threshold
pKd [11]: below the threshold
pKd [12]: 3.56
pKd [13]: below the threshold
pKd [14]: below the threshold
pKd [15]: below the threshold
pKd [16]: below the threshold
pKd [17]: below the threshold
pKd [18]: below the threshold
pKd [19]: below the threshold
pKd [20]: below the threshold
pKd [21]: below the threshold
pKd [22]: below the threshold
pKd [23]: below the threshold
pKd [24]: below the threshold
pKd [25]: 4.02
pKd [26]: below the threshold
pKd [27]: below the threshold
pKd [28]: below the threshold
Binder: KKAPTNEFYA [SDC4, P31431]

pKd [1]: below the threshold
pKd [2]: below the threshold
pKd [3]: below the threshold
pKd [4]: below the threshold
pKd [5]: 4.47
pKd [6]: below the threshold
pKd [7]: 4.33
pKd [8]: 3.54
pKd [9]: below the threshold
pKd [10]: below the threshold
pKd [11]: below the threshold
pKd [12]: below the threshold
pKd [13]: below the threshold
pKd [14]: below the threshold
pKd [15]: 3.7
pKd [16]: below the threshold
pKd [17]: below the threshold
pKd [18]: 4.31
pKd [19]: 3.76
pKd [20]: 3.55
pKd [21]: 4.47
pKd [22]: 3.5
pKd [23]: below the threshold
pKd [24]: 4.56
pKd [25]: 4.66
pKd [26]: below the threshold
pKd [27]: below the threshold
pKd [28]: 3.59
Binder: QGPVETESVV [SLC45A4, Q5BKX6]

— publication PMC9482650, “Quantitative fragmentomics allow affinity mapping of interactomes” (Nature Communications, 2022)
